{"source": "patent US12723248", "about": "(Amgen, dated 2026)", "binders": {"B1": {"name": "anti-ASGR1 primary antibody (Amgen clone 7E11) (antibody, human IgG1, kappa, N297G, V domains shown)", "VH": "QVQLVESGGGVVQPGRSLRLSCAASGFTFSSFGMHWVRQAPGKGLEWVAIIWHDGSNKYYADSVKGRFTISRDNSKNTLYLQMSSLRAEDTAVYYCARDLSMGGMDVWGQGTTVTVSS", "VL": "DIQMTQSPSSLSASVGDRVTIACRASQNIISYLNWYQQKPGKAPKFLIYTASSLQSGVPSRFSGSGSGTDFTLTISSLQPEDFAIYYCQQTYSTPLTFGGGTKVEIKR", "notes": "It was used as a staining reagent and detected with an Alexa488-conjugated anti-human IgG secondary antibody"}}, "target": "T1, human asialoglycoprotein receptor 1 (ASGR1) (human, UniProt P07306 1-291)", "T1 construct": "whole, on cells; The cells were fixed in formaldehyde before staining; also called hASGR1; HL-1", "T1 sequence (looked up)": "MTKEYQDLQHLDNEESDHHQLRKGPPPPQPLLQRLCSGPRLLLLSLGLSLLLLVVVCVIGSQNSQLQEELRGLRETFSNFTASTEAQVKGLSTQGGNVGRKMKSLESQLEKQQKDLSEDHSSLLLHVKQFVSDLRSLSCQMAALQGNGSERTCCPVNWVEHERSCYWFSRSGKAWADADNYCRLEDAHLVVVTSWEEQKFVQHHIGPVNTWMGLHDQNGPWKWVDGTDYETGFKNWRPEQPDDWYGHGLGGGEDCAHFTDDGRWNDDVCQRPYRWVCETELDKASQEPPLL", "assay": "immunofluorescence on formaldehyde-fixed Hep3B or HepG2 cells, Alexa488 anti-human IgG secondary, high-content imaging", "method": "The siRNA molecules in Tier 1 and Tier 2 screening sets were synthesized without chemical modifications. Each siRNA molecule was comprised of a 21 nucleotide sense strand and 21 nucleotide antisense strand that hybridized to form a duplex region of 19 base pairs with a 2 nucleotide overhang at the 3' end of each strand. The efficacy of each of the siRNA molecules in reducing ASGR1 expression was assessed using a 384-well format in vitro immunoassay, which quantifies levels of ASGR1 protein on the cell surface of Hep3B or HepG2 cells.\nTransfection complexes of the siRNA molecules and RNAiMax transfection reagent (Life Technologies) in EMEM media (ATCC 30-2003) were prepared in 384-well plates in accordance with manufacturer's recommendations. Human hepatocellular carcinoma Hep3B (ATCC HB-8064) or HepG2 (ATCC HB-8065) cells in EMEM media supplemented with 10% fetal bovine serum and 1% antibiotic/antimycotic were added to each well. Cells were incubated for 4 days at 37° C. and 5% CO_2. […] Data was analyzed using Columbus image analysis software and GeneData Screener software to quantify several measures of ASGR1 protein levels, cell count, and cell morphology on a per cell and per well basis.", "data": [{"binder": "B1", "values": [{"measurement": "binding result", "value": "binds"}]}]}
